Data reported in patent publication US20240123070A1 (SHANGHAI GENBASE BIOTECHNOLOGY, published 2024).

Each binder was assayed against KRAS G13D antigen (G13D-RT6, SEQ ID NO: 20) loaded on Lovo-DPA0301:DPB0501 cells (human) (assay: cell-based or functional assay).

Row | Binder | TCR Mut RLU/WT RLU [ratio]
1 | B8.2.4 TCR mutant β97V-T (TCR, V domains shown) V domain 1: AQKITQTQPGMFVQEKEAVTLDCTYDTSDPSYGLFWYKQPSSGEMIFLIYQGSYDQQNATEGRYSLNFQKARKSANLVISASQLGDSAMYFCAMRERTGTASKLTFGTGTRLQVTL V domain 2: DVKVTQSSRYLVKRTGEKVFLECVQDMDHENMFWYRQDPGLGLRLIYFSYDVKMKEKGDIPEGYSVSREKKERFSLILESASTNQTSMYLCASSQTTPPQHFGDGTRLSILE | 0.98
2 | B8.2.4 TCR mutant β97V-Y (TCR, V domains shown) V domain 1: AQKITQTQPGMFVQEKEAVTLDCTYDTSDPSYGLFWYKQPSSGEMIFLIYQGSYDQQNATEGRYSLNFQKARKSANLVISASQLGDSAMYFCAMRERTGTASKLTFGTGTRLQVTL V domain 2: DVKVTQSSRYLVKRTGEKVFLECVQDMDHENMFWYRQDPGLGLRLIYFSYDVKMKEKGDIPEGYSVSREKKERFSLILESASTNQTSMYLCASSQTYPPQHFGDGTRLSILE | 0.54
3 | B8.2.4 TCR mutant β98P-K (TCR, V domains shown) V domain 1: AQKITQTQPGMFVQEKEAVTLDCTYDTSDPSYGLFWYKQPSSGEMIFLIYQGSYDQQNATEGRYSLNFQKARKSANLVISASQLGDSAMYFCAMRERTGTASKLTFGTGTRLQVTL V domain 2: DVKVTQSSRYLVKRTGEKVFLECVQDMDHENMFWYRQDPGLGLRLIYFSYDVKMKEKGDIPEGYSVSREKKERFSLILESASTNQTSMYLCASSQTVKPQHFGDGTRLSILE | 0.47
4 | B8.2.4 TCR mutant β97V-W (TCR, V domains shown) V domain 1: AQKITQTQPGMFVQEKEAVTLDCTYDTSDPSYGLFWYKQPSSGEMIFLIYQGSYDQQNATEGRYSLNFQKARKSANLVISASQLGDSAMYFCAMRERTGTASKLTFGTGTRLQVTL V domain 2: DVKVTQSSRYLVKRTGEKVFLECVQDMDHENMFWYRQDPGLGLRLIYFSYDVKMKEKGDIPEGYSVSREKKERFSLILESASTNQTSMYLCASSQTWPPQHFGDGTRLSILE | 0.52
5 | B8.2.4 TCR mutant β98P-G (TCR, V domains shown) V domain 1: AQKITQTQPGMFVQEKEAVTLDCTYDTSDPSYGLFWYKQPSSGEMIFLIYQGSYDQQNATEGRYSLNFQKARKSANLVISASQLGDSAMYFCAMRERTGTASKLTFGTGTRLQVTL V domain 2: DVKVTQSSRYLVKRTGEKVFLECVQDMDHENMFWYRQDPGLGLRLIYFSYDVKMKEKGDIPEGYSVSREKKERFSLILESASTNQTSMYLCASSQTVGPQHFGDGTRLSILE | 0.73
6 | B8.2.4 TCR mutant β98P-D (TCR, V domains shown) V domain 1: AQKITQTQPGMFVQEKEAVTLDCTYDTSDPSYGLFWYKQPSSGEMIFLIYQGSYDQQNATEGRYSLNFQKARKSANLVISASQLGDSAMYFCAMRERTGTASKLTFGTGTRLQVTL V domain 2: DVKVTQSSRYLVKRTGEKVFLECVQDMDHENMFWYRQDPGLGLRLIYFSYDVKMKEKGDIPEGYSVSREKKERFSLILESASTNQTSMYLCASSQTVDPQHFGDGTRLSILE | 0.8
7 | B8.2.4 TCR mutant β98P-F (TCR, V domains shown) V domain 1: AQKITQTQPGMFVQEKEAVTLDCTYDTSDPSYGLFWYKQPSSGEMIFLIYQGSYDQQNATEGRYSLNFQKARKSANLVISASQLGDSAMYFCAMRERTGTASKLTFGTGTRLQVTL V domain 2: DVKVTQSSRYLVKRTGEKVFLECVQDMDHENMFWYRQDPGLGLRLIYFSYDVKMKEKGDIPEGYSVSREKKERFSLILESASTNQTSMYLCASSQTVFPQHFGDGTRLSILE | 0.96
8 | B8.2.4 TCR mutant β98P-A (TCR, V domains shown) V domain 1: AQKITQTQPGMFVQEKEAVTLDCTYDTSDPSYGLFWYKQPSSGEMIFLIYQGSYDQQNATEGRYSLNFQKARKSANLVISASQLGDSAMYFCAMRERTGTASKLTFGTGTRLQVTL V domain 2: DVKVTQSSRYLVKRTGEKVFLECVQDMDHENMFWYRQDPGLGLRLIYFSYDVKMKEKGDIPEGYSVSREKKERFSLILESASTNQTSMYLCASSQTVAPQHFGDGTRLSILE | 0.5
9 | B8.2.4 TCR mutant β98P-E (TCR, V domains shown) V domain 1: AQKITQTQPGMFVQEKEAVTLDCTYDTSDPSYGLFWYKQPSSGEMIFLIYQGSYDQQNATEGRYSLNFQKARKSANLVISASQLGDSAMYFCAMRERTGTASKLTFGTGTRLQVTL V domain 2: DVKVTQSSRYLVKRTGEKVFLECVQDMDHENMFWYRQDPGLGLRLIYFSYDVKMKEKGDIPEGYSVSREKKERFSLILESASTNQTSMYLCASSQTVEPQHFGDGTRLSILE | 0.99
10 | B8.2.4 TCR mutant β98P-H (TCR, V domains shown) V domain 1: AQKITQTQPGMFVQEKEAVTLDCTYDTSDPSYGLFWYKQPSSGEMIFLIYQGSYDQQNATEGRYSLNFQKARKSANLVISASQLGDSAMYFCAMRERTGTASKLTFGTGTRLQVTL V domain 2: DVKVTQSSRYLVKRTGEKVFLECVQDMDHENMFWYRQDPGLGLRLIYFSYDVKMKEKGDIPEGYSVSREKKERFSLILESASTNQTSMYLCASSQTVHPQHFGDGTRLSILE | 0.6
11 | B8.2.4 TCR mutant β98P-L (TCR, V domains shown) V domain 1: AQKITQTQPGMFVQEKEAVTLDCTYDTSDPSYGLFWYKQPSSGEMIFLIYQGSYDQQNATEGRYSLNFQKARKSANLVISASQLGDSAMYFCAMRERTGTASKLTFGTGTRLQVTL V domain 2: DVKVTQSSRYLVKRTGEKVFLECVQDMDHENMFWYRQDPGLGLRLIYFSYDVKMKEKGDIPEGYSVSREKKERFSLILESASTNQTSMYLCASSQTVLPQHFGDGTRLSILE | 0.67
12 | B8.2.4 TCR mutant β98P-I (TCR, V domains shown) V domain 1: AQKITQTQPGMFVQEKEAVTLDCTYDTSDPSYGLFWYKQPSSGEMIFLIYQGSYDQQNATEGRYSLNFQKARKSANLVISASQLGDSAMYFCAMRERTGTASKLTFGTGTRLQVTL V domain 2: DVKVTQSSRYLVKRTGEKVFLECVQDMDHENMFWYRQDPGLGLRLIYFSYDVKMKEKGDIPEGYSVSREKKERFSLILESASTNQTSMYLCASSQTVIPQHFGDGTRLSILE | 0.33
13 | B8.2.4 TCR mutant β98P-C (TCR, V domains shown) V domain 1: AQKITQTQPGMFVQEKEAVTLDCTYDTSDPSYGLFWYKQPSSGEMIFLIYQGSYDQQNATEGRYSLNFQKARKSANLVISASQLGDSAMYFCAMRERTGTASKLTFGTGTRLQVTL V domain 2: DVKVTQSSRYLVKRTGEKVFLECVQDMDHENMFWYRQDPGLGLRLIYFSYDVKMKEKGDIPEGYSVSREKKERFSLILESASTNQTSMYLCASSQTVCPQHFGDGTRLSILE | 1.11

The next lines start with the values.

Row | TCR Mut RLU/WT RLU [ratio] | Binder
14 | 0.25 | B8.2.4 TCR mutant β98P-Y (TCR, V domains shown) V domain 1: AQKITQTQPGMFVQEKEAVTLDCTYDTSDPSYGLFWYKQPSSGEMIFLIYQGSYDQQNATEGRYSLNFQKARKSANLVISASQLGDSAMYFCAMRERTGTASKLTFGTGTRLQVTL V domain 2: DVKVTQSSRYLVKRTGEKVFLECVQDMDHENMFWYRQDPGLGLRLIYFSYDVKMKEKGDIPEGYSVSREKKERFSLILESASTNQTSMYLCASSQTVYPQHFGDGTRLSILE
15 | 0.81 | B8.2.4 TCR mutant β98P-W (TCR, V domains shown) V domain 1: AQKITQTQPGMFVQEKEAVTLDCTYDTSDPSYGLFWYKQPSSGEMIFLIYQGSYDQQNATEGRYSLNFQKARKSANLVISASQLGDSAMYFCAMRERTGTASKLTFGTGTRLQVTL V domain 2: DVKVTQSSRYLVKRTGEKVFLECVQDMDHENMFWYRQDPGLGLRLIYFSYDVKMKEKGDIPEGYSVSREKKERFSLILESASTNQTSMYLCASSQTVWPQHFGDGTRLSILE
16 | 0.45 | B8.2.4 TCR mutant β98P-Q (TCR, V domains shown) V domain 1: AQKITQTQPGMFVQEKEAVTLDCTYDTSDPSYGLFWYKQPSSGEMIFLIYQGSYDQQNATEGRYSLNFQKARKSANLVISASQLGDSAMYFCAMRERTGTASKLTFGTGTRLQVTL V domain 2: DVKVTQSSRYLVKRTGEKVFLECVQDMDHENMFWYRQDPGLGLRLIYFSYDVKMKEKGDIPEGYSVSREKKERFSLILESASTNQTSMYLCASSQTVQPQHFGDGTRLSILE
17 | 0.41 | B8.2.4 TCR mutant β98P-N (TCR, V domains shown) V domain 1: AQKITQTQPGMFVQEKEAVTLDCTYDTSDPSYGLFWYKQPSSGEMIFLIYQGSYDQQNATEGRYSLNFQKARKSANLVISASQLGDSAMYFCAMRERTGTASKLTFGTGTRLQVTL V domain 2: DVKVTQSSRYLVKRTGEKVFLECVQDMDHENMFWYRQDPGLGLRLIYFSYDVKMKEKGDIPEGYSVSREKKERFSLILESASTNQTSMYLCASSQTVNPQHFGDGTRLSILE
18 | 0.47 | B8.2.4 TCR mutant β98P-T (TCR, V domains shown) V domain 1: AQKITQTQPGMFVQEKEAVTLDCTYDTSDPSYGLFWYKQPSSGEMIFLIYQGSYDQQNATEGRYSLNFQKARKSANLVISASQLGDSAMYFCAMRERTGTASKLTFGTGTRLQVTL V domain 2: DVKVTQSSRYLVKRTGEKVFLECVQDMDHENMFWYRQDPGLGLRLIYFSYDVKMKEKGDIPEGYSVSREKKERFSLILESASTNQTSMYLCASSQTVTPQHFGDGTRLSILE
19 | 0.73 | B8.2.4 TCR mutant β98P-R (TCR, V domains shown) V domain 1: AQKITQTQPGMFVQEKEAVTLDCTYDTSDPSYGLFWYKQPSSGEMIFLIYQGSYDQQNATEGRYSLNFQKARKSANLVISASQLGDSAMYFCAMRERTGTASKLTFGTGTRLQVTL V domain 2: DVKVTQSSRYLVKRTGEKVFLECVQDMDHENMFWYRQDPGLGLRLIYFSYDVKMKEKGDIPEGYSVSREKKERFSLILESASTNQTSMYLCASSQTVRPQHFGDGTRLSILE
20 | 0.63 | B8.2.4 TCR mutant β98P-V (TCR, V domains shown) V domain 1: AQKITQTQPGMFVQEKEAVTLDCTYDTSDPSYGLFWYKQPSSGEMIFLIYQGSYDQQNATEGRYSLNFQKARKSANLVISASQLGDSAMYFCAMRERTGTASKLTFGTGTRLQVTL V domain 2: DVKVTQSSRYLVKRTGEKVFLECVQDMDHENMFWYRQDPGLGLRLIYFSYDVKMKEKGDIPEGYSVSREKKERFSLILESASTNQTSMYLCASSQTVVPQHFGDGTRLSILE
21 | 0.83 | B8.2.4 TCR mutant β98P-M (TCR, V domains shown) V domain 1: AQKITQTQPGMFVQEKEAVTLDCTYDTSDPSYGLFWYKQPSSGEMIFLIYQGSYDQQNATEGRYSLNFQKARKSANLVISASQLGDSAMYFCAMRERTGTASKLTFGTGTRLQVTL V domain 2: DVKVTQSSRYLVKRTGEKVFLECVQDMDHENMFWYRQDPGLGLRLIYFSYDVKMKEKGDIPEGYSVSREKKERFSLILESASTNQTSMYLCASSQTVMPQHFGDGTRLSILE
22 | 0.94 | B8.2.4 TCR mutant β98P-S (TCR, V domains shown) V domain 1: AQKITQTQPGMFVQEKEAVTLDCTYDTSDPSYGLFWYKQPSSGEMIFLIYQGSYDQQNATEGRYSLNFQKARKSANLVISASQLGDSAMYFCAMRERTGTASKLTFGTGTRLQVTL V domain 2: DVKVTQSSRYLVKRTGEKVFLECVQDMDHENMFWYRQDPGLGLRLIYFSYDVKMKEKGDIPEGYSVSREKKERFSLILESASTNQTSMYLCASSQTVSPQHFGDGTRLSILE
